The assay can be described thus: In-vivo cis-α-irone production screening of pMT7 and pMT12 mutants. Format: cell-based, Escherichia coli. The conditions noted are these: for Fold change in in-vivo cis-α-irone production: mutations made to pMT12, normalized to pMT12 (=1); for in-vivo production of cis-α-irone (in words): single mutations vs parent (pMT7 or pMT12). The source says: Q60 was identified as another possible mutation site.
FIGS. 24a and 24b show the in-vivo and in-vitro cis-α-irone production of other possible single mutations to pMT12. The in-vitro results in FIG. 24b validate the mutations and in-vivo results in FIG. 24a. The mutations in FIG. 24 include Q11H (SEQ ID No. 23), V12R (SEQ ID No. 24), A95C (SEQ ID No. 25), H123Q (SEQ ID No. 26), E127T (SEQ ID No. 27), M137T (SEQ ID No. 28), D176V (SEQ ID No. 29), D176Y (SEQ ID No. 30). P191S (SEQ ID No. 31), P191V (SEQ ID No. 32), F212L (SEQ ID No. 33), S268H (SEQ ID No. 34), AND T272A (SEQ ID No. 35). The screening results in FIGS. 24 and 25 are semi-quantitative to identify beneficial mutants that give greater than one-fold change of irone production as compared to pMT12.
FIGS. 25a to 25c (and Table 4) show the in-vivo testing results of other possible mutations that may be made to pMT12 to improve its in-vivo production of cis-α-irone. FIGS. 25a to 25c each include two dotted lines to account for a 10% error bar to show the normalized fold change of 0.9 and 1.1.
The four plasmids were transformed into E. coli BL21 (DE3), ΔaroA, ΔaroB, ΔaroC, ΔserC or E. coli BL21 (DE3), ΔaroA, ΔaroB, ΔaroC, ΔserC, ΔmetJ strains and plated on Agar plate containing LB media (10 g, tryptone. 5 g, yeast extract. 10 g, NaCl) supplemented with appropriate antibiotics (100 mg/L ampicillin, 34 mg/L chloramphenicol, 50 mg/L kanamycin, and 100 mg/L spectinomycin). One colony was picked and inoculate into LB media with antibiotics. 1% of overnight culture was inoculated into 1 ml fresh auto-inducing chemically defined media. The chemical media contains carbon source solution: 0.5 g/L glucose, 10 g/L glycerol; inducer: 30 mM lactose and base media: 2 g/L ammonium sulfate, 4.2 g/L KH2PO4, 11.24 g/L K2HPO4, 1.7 g/L citric acid, 0.5 g/L MgSO4, and 10 mL/L trace element solution. The trace element solution (100×) contained 0.25 g/L CoCl2·6H2O, 1.5 g/L MnSO4·4H2O, 0.15 g/L CuSO4·2H2O, 0.3 g/L H3BO3, 0.25 g/L Na2MoO4·2H2O, 0.8 g/L Zn(CH3COO)2, 5 g/L Fe(III) citrate, and 0.84 g/L ethylenediaminetetra-acetic acid (EDTA) at pH 8.0. The culture was grown at 28° C. for 3 days and the products were extracted with 1 ml hexane for GCMS analysis. An example of a fed-batch process for α-ionone Is briefly described, overnight culture was inoculated into 2 L chemical media comprising the base media and 5 g/L glucose, at 37° C. and 30% DO. pH was controlled at 7 with base solution (14% ammonia and 0.5 M NaOH). Feed media (500 g/L glucose and 5 g/L MgSO4) was added into bioreactor once OD600 reached 5, at a rate of 7.15-25.75 g/h glucose for about 4-5 h until OD600 reached ˜30-40. Subsequently, 0.1 mM IPTG was added to induce the production, and feeding rate was kept at a constant rate of 10 g/h glucose, and the temperature was reduced to 30° C. DO was adjusted to 2% or 10%. Feeding was stopped at 113 h when 2 L feeding media was finished, but the culture was further incubated for 24 h. To capture the evaporated products, the exhaust was connected to 25 ml sunflower oil.

Experimental findings from US20240240209A1, “SYNTHESIS OF ENANTIOPURE CIS-A-IRONE FROM A RENEWABLE CARBON SOURCE” (Agency for Science, Technology and Research, priority 2021, published 2024) are described below.

Entries after “also recorded” stand apart in the source; their conditions may differ.

B1: D176V (protein)
chain: MPQEARTPQQQVTADEVGDWYDKFGEVYHLTLGESVHCGLWFPPDAPVPQDMELVTMSSQAQDRFTDYLIETLDPKAGQHLLDIGCGTGRPALKAARQRGIAVTGVAVSKEQIAAANRLAAGHGLTERLTFEVADAMRLPYEDESFDCAWAIESLDHMDRAKALGEAWRVLKPGGVLLVAEEVVTEELTEPETALFETLFALNVPPRLGEFFDIVSGAGFHTLSLKDLSADLAMTMNVFALGVYSRRAEFTERFGAEFVDGLLAGLGSAQETVIRKTRFFMATLRKPAV
modifications: Modified from pMT1
B1: the “Fold change in in-vivo cis-α-irone production” value (“Fold change” for short) was found to be 2.24 and the “in-vivo production of cis-α-irone (in words)” value (“in-vivo production” for short) was “significant increase; also recorded: significant improvement”.

B2: D159L (protein)
chain: MPQEARTPQQQVTADEVGDWYDKFGEVYHLTLGESVHCGLWFPPDAPVPQDMELVTMSSQAQDRFTDYLIETLDPKAGQHLLDIGCGTGRPALKAARQRGIAVTGVAVSKEQIAAANRLAAGHGLTERLTFEVADAMRLPYEDESFDCAWAIESLDHMLRAKALGEAWRVLKPGGDLLVAEEVVTEELTEPETALFETLFALNVPPRLGEFFDIVSGAGFHTLSLKDLSADLAMTMNVFALGVYSRRAEFTERFGAEFVDGLLAGLGSAQETVIRKTRFFMATLRKPAV
modifications: Modified from pMT1
B2: the “Fold change” value was 1.55 and the “in-vivo production” value was “significant improvement”.

B3: Q60K (protein)
chain: MPQEARTPQQQVTADEVGDWYDKFGEVYHLTLGESVHCGLWFPPDAPVPQDMELVTMSSRAQDRFTDYLIETLDPKAGQHLLDIGCGTGRTALKAARQRGIAVTGVAVSKEQIAAANRLAAGHGLTERLTFEVADAMRLPYEDESFDCAWAIESLCHMDRAKALGEAWRVLKPGGDLLVAEEVVTEELTEPETALFETLFALNVPPRLGEFFDIVSGAGFHTLSLKDLSANLAMTMNVFALGVYSRRAEFTERFGAEFVDGLLAGLGSAQETVIRKTRFFMATLRKPAV
modifications: Modified from pMT1
As for B3, the “in-vivo production” value is on record as “increased cis-α-irone production in-vivo”.

B4: E190Q (protein)
chain: MPQEARTPQQQVTADEVGDWYDKFGEVYHLTLGESVHCGLWFPPDAPVPQDMELVTMSSQAQDRFTDYLIETLDPKAGQHLLDIGCGTGRPALKAARQRGIAVTGVAVSKEQIAAANRLAAGHGLTERLTFEVADAMRLPYEDESFDCAWAIESLDHMDRAKALGEAWRVLKPGGDLLVAEEVVTEELTQPETALFETLFALNVPPRLGEFFDIVSGAGFHTLSLKDLSADLAMTMNVFALGVYSRRAEFTERFGAEFVDGLLAGLGSAQETVIRKTRFFMATLRKPAV
modifications: Modified from pMT1
For B4, the “Fold change” value is reported as 2.90 and the “in-vivo production” value is on record as “significant improvement”.

B5: P191V (protein)
chain: MPQEARTPQQQVTADEVGDWYDKFGEVYHLTLGESVHCGLWFPPDAPVPQDMELVTMSSQAQDRFTDYLIETLDPKAGQHLLDIGCGTGRPALKAARQRGIAVTGVAVSKEQIAAANRLAAGHGLTERLTFEVADAMRLPYEDESFDCAWAIESLDHMDRAKALGEAWRVLKPGGDLLVAEEVVTEELTEVETALFETLFALNVPPRLGEFFDIVSGAGFHTLSLKDLSADLAMTMNVFALGVYSRRAEFTERFGAEFVDGLLAGLGSAQETVIRKTRFFMATLRKPAV
modifications: Modified from pMT1
In the case of B5, the “Fold change” value amounted to 1.26 and the “in-vivo production” value is “significant increase”.

B6: D176L, A248V: pMT12 with D176L and A248V (protein)
chain: MPQEARTPQQQVTADEVGDWYDKFGEVYHLTLGESVHCGLWFPPDAPVPQDMELVTMSSQAQDRFTDYLIETLDPKAGQHLLDIGCGTGRPALKAARQRGIAVTGVAVSKEQIAAANRLAAGHGLTERLTFEVADAMRLPYEDESFDCAWAIESLDHMDRAKALGEAWRVLKPGGLLLVAEEVVTEELTEPETALFETLFALNVPPRLGEFFDIVSGAGFHTLSLKDLSADLAMTMNVFALGVYSRRVEFTERFGAEFVDGLLAGLGSAQETVIRKTRFFMATLRKPAV
modifications: Modified from pMT1
B6: the “Fold change” value is recorded as 3.14 and the “in-vivo production” value is on record as “significant improvement”.

B7: D176R (protein)
chain: MPQEARTPQQQVTADEVGDWYDKFGEVYHLTLGESVHCGLWFPPDAPVPQDMELVTMSSQAQDRFTDYLIETLDPKAGQHLLDIGCGTGRPALKAARQRGIAVTGVAVSKEQIAAANRLAAGHGLTERLTFEVADAMRLPYEDESFDCAWAIESLDHMDRAKALGEAWRVLKPGGRLLVAEEVVTEELTEPETALFETLFALNVPPRLGEFFDIVSGAGFHTLSLKDLSADLAMTMNVFALGVYSRRAEFTERFGAEFVDGLLAGLGSAQETVIRKTRFFMATLRKPAV
modifications: Modified from pMT1
Regarding B7, the “Fold change” value came out at 1.80 and the “in-vivo production” value was “significant improvement”.

B8: D176K (protein)
chain: MPQEARTPQQQVTADEVGDWYDKFGEVYHLTLGESVHCGLWFPPDAPVPQDMELVTMSSQAQDRFTDYLIETLDPKAGQHLLDIGCGTGRPALKAARQRGIAVTGVAVSKEQIAAANRLAAGHGLTERLTFEVADAMRLPYEDESFDCAWAIESLDHMDRAKALGEAWRVLKPGGKLLVAEEVVTEELTEPETALFETLFALNVPPRLGEFFDIVSGAGFHTLSLKDLSADLAMTMNVFALGVYSRRAEFTERFGAEFVDGLLAGLGSAQETVIRKTRFFMATLRKPAV
modifications: Modified from pMT1
On to B8, for which the “Fold change” value is 1.90 and the “in-vivo production” value is on record as “significant improvement”.

B9: D176Y (protein)
chain: MPQEARTPQQQVTADEVGDWYDKFGEVYHLTLGESVHCGLWFPPDAPVPQDMELVTMSSQAQDRFTDYLIETLDPKAGQHLLDIGCGTGRPALKAARQRGIAVTGVAVSKEQIAAANRLAAGHGLTERLTFEVADAMRLPYEDESFDCAWAIESLDHMDRAKALGEAWRVLKPGGYLLVAEEVVTEELTEPETALFETLFALNVPPRLGEFFDIVSGAGFHTLSLKDLSADLAMTMNVFALGVYSRRAEFTERFGAEFVDGLLAGLGSAQETVIRKTRFFMATLRKPAV
modifications: Modified from pMT1
As for B9, the “in-vivo production” value is given as “significant increase”.

B10: Q60R (protein)
chain: MPQEARTPQQHVTADEVGDWYDKFGEVYHLTLGESVHCGLWFPPDAPVPQDMELVTMSSQAQDRFTDYLIETLDPKAGQHLLDIGCGTGRPALKAARQRGIAVTGVAVSKEQIAAANRLAAGHGLTERLTFEVADAMRLPYEDESFDCAWAIESLDHMDRAKALGEAWRVLKPGGDLLVAEEVVTEELTEPETALFETLFALNVPPRLGEFFDIVSGAGFHTLSLKDLSADLAMTMNVFALGVYSRRAEFTERFGAEFVDGLLAGLGSAQETVIRKTRFFMATLRKPAV
modifications: Modified from pMT1
As for B10, the “in-vivo production” value was “increased cis-α-irone production in-vivo”.

B11: D176L: pMT12 with D176L (protein)
chain: MPQEARTPQQQVTADEVGDWYDKFGEVYHLTLGESVHCGLWFPPDAPVPQDMELVTMSSQAQDRFTDYLIETLDPKAGQHLLDIGCGTGRPALKAARQRGIAVTGVAVSKEQIAAANRLAAGHGLTERLTFEVADAMRLPYEDESFDCAWAIESLDHMDRAKALGEAWRVLKPGGLLLVAEEVVTEELTEPETALFETLFALNVPPRLGEFFDIVSGAGFHTLSLKDLSADLAMTMNVFALGVYSRRAEFTERFGAEFVDGLLAGLGSAQETVIRKTRFFMATLRKPAV
modifications: Modified from pMT1
As for B11, the “Fold change” value was determined as 2.52 and the “in-vivo production” value is listed as “significant improvement”.
